Test results from publication PMC10619491, “SET7/9-mediated methylation affects oncogenic functions of histone demethylase JMJD2A” (JCI Insight, 2023).
Values belong to the binder of their own block, whether it stands above or below them. Ends that are not written are not given here.

Biological target: T1, GST–ETV1(249–477) fusion protein (UniProt P50549 249-477)
T1 construct: ETV1, C-terminal half, residues 249-477; In the MST it was labelled through an anti-GST mouse mAb coupled to Alexa Fluor 647; also called fusion between GST and the C-terminal half of ETV1 (aa 249–477); source: E. coli, purified
T1 sequence (looked up): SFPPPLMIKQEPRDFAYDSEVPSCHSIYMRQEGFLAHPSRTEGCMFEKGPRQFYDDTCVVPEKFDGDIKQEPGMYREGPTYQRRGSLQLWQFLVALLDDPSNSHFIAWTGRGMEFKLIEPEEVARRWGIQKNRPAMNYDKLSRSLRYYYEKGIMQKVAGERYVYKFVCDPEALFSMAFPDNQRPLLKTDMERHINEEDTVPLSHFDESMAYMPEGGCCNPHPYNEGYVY
Assay: MST; Monolith NT.115; 15 serial dilutions of peptide (starting concentration 50 μM) against 300 nM GST–ETV1(249–477) with 20 nM anti-GST mouse mAb coupled to Alexa Fluor 647; PBS with 0.05% Tween-20
Settings: both partners purified

Kd: 25.4 µM
B1: unmethylated (WT) peptide spanning JMJD2A aa 490–522 (peptide, UniProt O75164 490-522, looked up)
peptide: VNPASVGGRLVFSGSKKKSSSSLGSGSSRDSIS-NH2
notes: JMJD2A/KDM4A, human, residues 490-522; also called JMJD2A aa 490–522 peptide; source: synthetic peptide (GenScript)

Kd: 8.7 µM
B2: triple methylated (on K505, K506, and K507; 3xme) peptide spanning JMJD2A aa 490–522 (peptide, UniProt O75164 490-522, looked up)
peptide: VNPASVGGRLVFSGSK(Me)K(Me)K(Me)SSSSLGSGSSRDSIS-NH2
modifications: N-terminus assumed
SMILES: CC[C@H](C)[C@H](NC(=O)[C@H](CO)NC(=O)[C@H](CC(=O)O)NC(=O)[C@H](CCCNC(=N)N)NC(=O)[C@H](CO)NC(=O)[C@H](CO)NC(=O)CNC(=O)[C@H](CO)NC(=O)CNC(=O)[C@H](CC(C)C)NC(=O)[C@H](CO)NC(=O)[C@H](CO)NC(=O)[C@H](CO)NC(=O)[C@H](CO)NC(=O)[C@H](CCCCNC)NC(=O)[C@H](CCCCNC)NC(=O)[C@H](CCCCNC)NC(=O)[C@H](CO)NC(=O)CNC(=O)[C@H](CO)NC(=O)[C@H](Cc1ccccc1)NC(=O)[C@@H](NC(=O)[C@H](CC(C)C)NC(=O)[C@H](CCCNC(=N)N)NC(=O)CNC(=O)CNC(=O)[C@@H](NC(=O)[C@H](CO)NC(=O)[C@H](C)NC(=O)[C@@H]1CCCN1C(=O)[C@H](CC(N)=O)NC(=O)[C@@H](N)C(C)C)C(C)C)C(C)C)C(=O)N[C@@H](CO)C(N)=O
notes: JMJD2A/KDM4A, human, residues 490-522; source: synthetic peptide (GenScript)
